From paper PMC7102971 (Nucleic Acids Research, 2020) come the findings set out here.

This data set concerns the molecule itself. In words: crystal structure.

B1: SFPQ-276-535 (dimerization domain of human SFPQ) (domain or fragment)
chain: EGFKANLSLLRRPGEKTYTQRCRLFVGNLPADITEDEFKRLFAKYGEPGEVFINKGKGFGFIKLESRALAEIAKAELDDTPMRGRQLRVRFATHAAALSVRNLSPYVSNELLEEAFSQFGPIERAVVIVDDRGRSTGKGIVEFASKPAARKAFERCSEGVFLLTTTPRPVIVEPLEQLDDEDGLPEKLAQKNPMYQKERETPPRFAQHGTFEYEYSQRWKSLDEMEKQQREQVEKNMKDAKDKLESEMEDAYHEHQANLL
Regarding B1, the binding result was “binds”.
